The source of these data is patent US20230242956A1, “POLYPHOSPHATE KINASE MUTANT, ENGINEERED STRAIN AND APPLICATION THEREOF” (ZHEJIANG UNIVERSITY OF TECHNOLOGY, priority 2022, published 2023).

Substrate in data set [1]: Nc1ncnc2c1ncn2[C@@H]1O[C@H](COP(=O)(O)O)[C@@H](O)[C@H]1O
The data set is described as follows: Kinetic parameters of wild-type ChPPK (pure enzyme, pseudo-one-substrate kinetic model, ATP by HPLC). In kind it is biochemical, Cytophaga hutchinsonii. The conditions noted are these: other: substrate AMP, fixed PPA 1.6 g/L, AMP 0-5.0 mM, pH 7.5, 37° C. On the procedure: A PPK protein sequence derived from Cytophaga hutchinsonii (ChPPK, GenBank accession number: ABG57400.1) in GenBank was optimized for E. coli codon preference and fused to a C-terminal 6His tag. The resulting recombinant sequence of the gene ChPPK with a length of 930 bp was synthesized by Tsingke Biotechnology Co., Ltd. (Beijing, China), the nucleotide sequence is shown in SEQ ID NO: 1, and the amino acid sequence of the encoded protein is shown in SEQ ID NO: 2.
(2) Pure enzyme: 5 mL of the crude enzyme solution was diluted with 40 mL of potassium phosphate buffer (20 mM, pH 7.2), and then applied to a HisTrap HP purification column of GE Healthcare (10 mL column, pre-washed with a pH 7.2, 20 mM potassium phosphate buffer containing 500 mM NaCl). […] The concentration of the pure enzyme was determined by Beyotime BCA Protein Assay Kit(P0012), and the amount of the pure enzyme used in the following examples was calculated by protein content.
0.4 mg of the crude enzyme solution prepared by the method in Example 2 or 0.05 mg of the pure enzyme, polyphosphoric acid (PPA) at a final concentration of 1.6 g/L, adenosine phosphate (AMP) at a final concentration of 2.25 mM, and MgCl2 at a final concentration of 10 mM were added to 10 mL of 50 mM potassium phosphate buffer (pH 7.5). […] The ATP content in the solution was determined by HPLC method. […]
(§1) The wild-type Ecoli.BL21(DE3)-ChPPK constructed by the method of Example 1 and the engineered strain Ecoli.BL21(DE3)-ChPPK/A79G/S106C/I108F/L285P constructed by the method of Example 6 were used to prepare pure enzymes by the method of Example 2. Km and Kcat were calculated by pseudo-one-substrate kinetic model. […]

Substrate in data set [2]: Nc1ncnc2c1ncn2[C@@H]1O[C@H](COP(=O)(O)O)[C@@H](O)[C@H]1O
The data set can be described thus: Kinetic parameters of mutant ChPPK/A79G/S106C/I108F/L285P (pure enzyme, pseudo-one-substrate kinetic model, ATP by HPLC). The class given is biochemical, Cytophaga hutchinsonii. The conditions noted are these: other: substrate AMP, fixed PPA 1.6 g/L, AMP 0-5.0 mM, pH 7.5, 37° C. How it is done: (2) Pure enzyme: 5 mL of the crude enzyme solution was diluted with 40 mL of potassium phosphate buffer (20 mM, pH 7.2), and then applied to a HisTrap HP purification column of GE Healthcare (10 mL column, pre-washed with a pH 7.2, 20 mM potassium phosphate buffer containing 500 mM NaCl). The resulting purification column was eluted with 100 mL of washing buffer (a pH7.2, 20 mM potassium phosphate buffer containing 500 mM sodium chloride and 50 mM imidazole) at a rate of 0.5 mL/min to remove the absorbed protein impurities, and then eluted with an elution buffer (a pH7.2, 20 mM potassium phosphate buffer containing 500 mM sodium chloride and 50 mM imidazole) at a speed of 0.5 mL/min to collect an elution solution containing the target protein. Then the elution solution containing the target protein was dialyzed in a dialysis bag (the MWCO of the dialysis bag was 14 KDa) with a pH7.2 of 20 mM potassium phosphate buffer for 48h, and the retentate was taken as pure enzyme. The concentration of the pure enzyme was determined by Beyotime BCA Protein Assay Kit(P0012), and the amount of the pure enzyme used in the following examples was calculated by protein content.
0.4 mg of the crude enzyme solution prepared by the method in Example 2 or 0.05 mg of the pure enzyme, polyphosphoric acid (PPA) at a final concentration of 1.6 g/L, adenosine phosphate (AMP) at a final concentration of 2.25 mM, and MgCl2 at a final concentration of 10 mM were added to 10 mL of 50 mM potassium phosphate buffer (pH 7.5). The reaction solution was incubated at 37° C. for 5 min, and then 10 mL of 0.2 M phosphoric acid solution was added to terminate the reaction. The ATP content in the solution was determined by HPLC method. […]
as §1

B1: Cytophaga hutchinsonii polyphosphate kinase (ChPPK), wild-type, C-terminal 6His tag, SEQ ID NO: 2 (Cytophaga hutchinsonii ATCC 33406) (protein)
chain: MATDFSKLSKYVETLRVKPKQSIDLKKDFDTDYDHKMLTKEEGEELLNLGISKLSEIQEKLYASGTKSVLIVFQAMDAAGKDGTVKHIMTGLNPQGVKVTSFKVPSKIELSHDYLWRHYVALPATGEIGIFNRSHYENVLVTRVHPEYLLSEQTSGVTAIEQVNQKFWDKRFQQINNFEQHISENGTIVLKFFLHVSKKEQKKRFIERIELDTKNWKFSTGDLKERAHWKDYRNAYEDMLANTSTKQAPWFVIPADDKWFTRLLIAEIICTELEKLNLTFPTVSLEQKAELEKAKAELVAEKSSDHHHHHH
By Km is commonly meant the substrate concentration at which the rate is half of its maximum. As usually defined, the kcat is the maximal rate divided by the concentration of active sites. As usually defined, the kcat/Km is the turnover number divided by the Michaelis constant. B1: in data set [1], the Km was 1660 ± 100 µM, the kcat is 1.01 ± 0.05 s⁻¹ and the kcat/Km was 610 M⁻¹ s⁻¹.

B2: Cytophaga hutchinsonii polyphosphate kinase (ChPPK) mutant A79G/S106C/I108F/L285P (parent SEQ ID NO: 2) (Cytophaga hutchinsonii ATCC 33406; … (protein)
chain: MATDFSKLSKYVETLRVKPKQSIDLKKDFDTDYDHKMLTKEEGEELLNLGISKLSEIQEKLYASGTKSVLIVFQAMDAGGKDGTVKHIMTGLNPQGVKVTSFKVPCKFELSHDYLWRHYVALPATGEIGIFNRSHYENVLVTRVHPEYLLSEQTSGVTAIEQVNQKFWDKRFQQINNFEQHISENGTIVLKFFLHVSKKEQKKRFIERIELDTKNWKFSTGDLKERAHWKDYRNAYEDMLANTSTKQAPWFVIPADDKWFTRLLIAEIICTELEKLNLTFPTVSPEQKAELEKAKAELVAEKSSDHHHHHH
As to B2, in data set [2], the Km was found to be 1670 ± 180 µM, the kcat is 16.3 ± 1.78 s⁻¹ and the kcat/Km came to 9780 M⁻¹ s⁻¹.
